Reference: article doi:10.1101/2020.05.26.111013

Molecular target: PelX^C232S (Pseudomonas protegens Pf-5)
Test: SEC

For PelX^C232S (enzyme), the stoichiometry N was 2.
